Measurements as given in publication PMC5511190.

B1: 14-3-3 protein theta (natural protein)
chain: MEKTELIQKAKLAEQAERYDDMATCMKAVTEQGAELSNEERNLLSVAYKNVVGGRRSAWRVISSIEQKTDTSDKKLQLIKDYREKVESELRSICTTVLELLDKYLIANATNPESKVFYLKMKGDYFRYLAEVACGDDRKQTIENSQGAYQEAFDISKKEMQPTHPIRLGLALNFSVFYYEILNNPELACTLAKTAFDEAIAELDTLNEDSYKDSTLIMQLLRDNLTLWTSDSAGEECDAAEGAEN
B2: CaM kinase-like vesicle-associated protein (natural protein)
chain: MPFGCVTLGDKKNYNQPSEVTDRYDLGQVIKTEEFCEIFRAKDKTTGKLHTCKKFQKRDGRKVRKAAKNEIGILKMVKHPNILQLVDVFVTRKEYFIFLELATGREVFDWILDQGYYSERDTSNVVRQVLEAVAYLHSLKIVHRNLKLENLVYYNRLKNSKIVISDFHLAKLENGLIKEPCGTPEYLAPEVVGRQRYGRPVDCWAIGVIMYILLSGNPPFYEEVEEDDYENHDKNLFRKILAGDYEFDSPYWDDISQAAKDLVTRLMEVEQDQRITAEEAISHEWISGNAASDKNIKDGVCAQIEKNFARAKWKKAVRVTTLMKRLRAPEQSGTAATQSASDAATPGAAGGAIAAAAAAAAAGGAASASGASATAATEGGAGCAAKSDDIASADRSATPATDGSATPATDGSVTPATDGSITPATDGSVTPATDRSATPATDGRATPATEESTVPATQSSALPAAKAAATPEPAVAQPDSTALEGATGQAPPSSKGEEATGCAQESQRVETS
B3: WD repeat-containing protein 1 (natural protein)
chain: MPYEIKKVFASLPQVERGVSKILGGDPKGDHFLYTNGKCVILRNIDNPAIADIYTEHAHQVVVAKYAPSGFYIASGDISGKLRIWDTTQKEHLLKYEYQPFAGKIKDIAWTEDSKRIAVVGEGREKFGAVFLWDTGSSVGEITGHNKVINSVDIKQTRPYRLATGSDDNCAAFFEGPPFKFKFTIGDHSRFVNCVRFSPDGNRFATASADGQIFIYDGKTGEKVCALGESKAHDGGIYAISWSPDSTHLLSASGDKTSKIWDVNVNSVVSTFPMGSNVLDQQLGCLWQKDHLLSISLSGYINYLDKNNPSKPLRVIKGHSKSIQCLTVHRNGGKSYIYSGSHDGHINYWDSETGENDSFSGKGHTNQVSRMTVNESEQLVSCSMDDTVRYTNLTLRDYSGQGVVKLDVQPKCVAVGPGGYTVVVCIGQIVLLKDQKKCFSIDNPGYEPEVVAVHPGGDTVAVGGTDGNVRVYSILASTLKDEGKLLEAKGPVTDVAYSHDGAFLAVCDASKVVTVFSVADGYSENNVFYGHHAKIVCLAWSPDNEHFASGGMDMMVYVWTLSDPETKVKIQDAHRLHHVSSLAWLDEHTLVTTSHDASVKEWTITY
B4: 14-3-3 protein eta (natural protein)
chain: MGDREQLLQRARLAEQAERYDDMASAMKAVTELNEPLSNEDRNLLSVAYKNVVGARRSSWRVISSIEQKTMADGNEKKLEKVKAYREKIEKELETVCNDVLALLDKFLIKNCNDFQYESKVFYLKMKGDYYRYLAEVASGEKKNSVVEASEAAYKEAFEISKEHMQPTHPIRLGLALNFSVFYYEIQNAPEQACLLAKQAFDDAIAELDTLNEDSYKDSTLIMQLLRDNLTLWTSDQQDEEAGEGN
B5: Profilin-2 (natural protein)
chain: MAGWQSYVDNLMCDGCCQEAAIVGYCDAKYVWAATAGGVFQSITPVEIDMIVGKDREGFFTNGLTLGAKKCSVIRDSLYVDGDCTMDIRTKSQGGEPTYNVAVGRAGRVLVFVMGKEGVHGGGLNKKAYSMAKYLRDSGF
B6: 14-3-3 protein beta/alpha (natural protein)
chain: MTMDKSELVQKAKLAEQAERYDDMAAAMKAVTEQGHELSNEERNLLSVAYKNVVGARRSSWRVISSIEQKTERNEKKQQMGKEYREKIEAELQDICNDVLELLDKYLILNATQAESKVFYLKMKGDYFRYLSEVASGENKQTTVSNSQQAYQEAFEISKKEMQPTHPIRLGLALNFSVFYYEILNSPEKACSLAKTAFDEAIAELDTLNEESYKDSTLIMQLLRDNLTLWTSENQGDEGDAGEGEN
B7: Guanine deaminase (natural protein)
chain: MCAARTPPLALVFRGTFVHSTWTCPMEVLRDHLLGVSDSGKIVFLEESSQQEKLAKEWCFKPCEIRELSHHEFFMPGLVDTHIHAPQYAFAGSNVDLPLLEWLNKYTFPTEQRFRSTDVAEEVYTRVVRRTLKNGTTTACYFGTIHTDSSLILAEITDKFGQRAFVGKVCMDLNDTVPEYKETTEESVKETERFVSEMLQKNYPRVKPIVTPRFTLSCTETLMSELGNIAKTHDLYIQSHISENREEIEAVKSLYPSYKNYTDVYDKNNLLTNKTVMAHGCYLSEEELNIFSERGASIAHCPNSNLSLSSGLLNVLEVLKHKVKIGLGTDVAGGYSYSMLDAIRRAVMVSNVLLINKVNEKNLTLKEVFRLATLGGSQALGLDSEIGNFEVGKEFDALLINPRASDSPIDLFYGDFVGDISEAVIQKFLYLGDDRNIEEVYVGGKQVVPFSSSV

The binders below were run against GST-LRRK2 WD40 G2385R (human) (UniProt Q5S007) (assay: affinity purification with mass spectrometry; 5 µg GST fusion protein on glutathione-Sepharose incubated with adult mouse brain lysate or crude SV fraction (LP2) (1 mg protein) 2 h at 4 °C; washes 150 mM NaCl, 2 mM EDTA, 50 mM Tris-HCl, 0.2% Triton, pH 7.4; LC-MS/MS with label-free quantification, 4 samples per condition (GST-control, GST-WD40, GST-WD40-G2385R)).
GST-LRRK2 WD40 G2385R (human), sequence (Q5S007 whole entry G2385R, the tested form may be a part): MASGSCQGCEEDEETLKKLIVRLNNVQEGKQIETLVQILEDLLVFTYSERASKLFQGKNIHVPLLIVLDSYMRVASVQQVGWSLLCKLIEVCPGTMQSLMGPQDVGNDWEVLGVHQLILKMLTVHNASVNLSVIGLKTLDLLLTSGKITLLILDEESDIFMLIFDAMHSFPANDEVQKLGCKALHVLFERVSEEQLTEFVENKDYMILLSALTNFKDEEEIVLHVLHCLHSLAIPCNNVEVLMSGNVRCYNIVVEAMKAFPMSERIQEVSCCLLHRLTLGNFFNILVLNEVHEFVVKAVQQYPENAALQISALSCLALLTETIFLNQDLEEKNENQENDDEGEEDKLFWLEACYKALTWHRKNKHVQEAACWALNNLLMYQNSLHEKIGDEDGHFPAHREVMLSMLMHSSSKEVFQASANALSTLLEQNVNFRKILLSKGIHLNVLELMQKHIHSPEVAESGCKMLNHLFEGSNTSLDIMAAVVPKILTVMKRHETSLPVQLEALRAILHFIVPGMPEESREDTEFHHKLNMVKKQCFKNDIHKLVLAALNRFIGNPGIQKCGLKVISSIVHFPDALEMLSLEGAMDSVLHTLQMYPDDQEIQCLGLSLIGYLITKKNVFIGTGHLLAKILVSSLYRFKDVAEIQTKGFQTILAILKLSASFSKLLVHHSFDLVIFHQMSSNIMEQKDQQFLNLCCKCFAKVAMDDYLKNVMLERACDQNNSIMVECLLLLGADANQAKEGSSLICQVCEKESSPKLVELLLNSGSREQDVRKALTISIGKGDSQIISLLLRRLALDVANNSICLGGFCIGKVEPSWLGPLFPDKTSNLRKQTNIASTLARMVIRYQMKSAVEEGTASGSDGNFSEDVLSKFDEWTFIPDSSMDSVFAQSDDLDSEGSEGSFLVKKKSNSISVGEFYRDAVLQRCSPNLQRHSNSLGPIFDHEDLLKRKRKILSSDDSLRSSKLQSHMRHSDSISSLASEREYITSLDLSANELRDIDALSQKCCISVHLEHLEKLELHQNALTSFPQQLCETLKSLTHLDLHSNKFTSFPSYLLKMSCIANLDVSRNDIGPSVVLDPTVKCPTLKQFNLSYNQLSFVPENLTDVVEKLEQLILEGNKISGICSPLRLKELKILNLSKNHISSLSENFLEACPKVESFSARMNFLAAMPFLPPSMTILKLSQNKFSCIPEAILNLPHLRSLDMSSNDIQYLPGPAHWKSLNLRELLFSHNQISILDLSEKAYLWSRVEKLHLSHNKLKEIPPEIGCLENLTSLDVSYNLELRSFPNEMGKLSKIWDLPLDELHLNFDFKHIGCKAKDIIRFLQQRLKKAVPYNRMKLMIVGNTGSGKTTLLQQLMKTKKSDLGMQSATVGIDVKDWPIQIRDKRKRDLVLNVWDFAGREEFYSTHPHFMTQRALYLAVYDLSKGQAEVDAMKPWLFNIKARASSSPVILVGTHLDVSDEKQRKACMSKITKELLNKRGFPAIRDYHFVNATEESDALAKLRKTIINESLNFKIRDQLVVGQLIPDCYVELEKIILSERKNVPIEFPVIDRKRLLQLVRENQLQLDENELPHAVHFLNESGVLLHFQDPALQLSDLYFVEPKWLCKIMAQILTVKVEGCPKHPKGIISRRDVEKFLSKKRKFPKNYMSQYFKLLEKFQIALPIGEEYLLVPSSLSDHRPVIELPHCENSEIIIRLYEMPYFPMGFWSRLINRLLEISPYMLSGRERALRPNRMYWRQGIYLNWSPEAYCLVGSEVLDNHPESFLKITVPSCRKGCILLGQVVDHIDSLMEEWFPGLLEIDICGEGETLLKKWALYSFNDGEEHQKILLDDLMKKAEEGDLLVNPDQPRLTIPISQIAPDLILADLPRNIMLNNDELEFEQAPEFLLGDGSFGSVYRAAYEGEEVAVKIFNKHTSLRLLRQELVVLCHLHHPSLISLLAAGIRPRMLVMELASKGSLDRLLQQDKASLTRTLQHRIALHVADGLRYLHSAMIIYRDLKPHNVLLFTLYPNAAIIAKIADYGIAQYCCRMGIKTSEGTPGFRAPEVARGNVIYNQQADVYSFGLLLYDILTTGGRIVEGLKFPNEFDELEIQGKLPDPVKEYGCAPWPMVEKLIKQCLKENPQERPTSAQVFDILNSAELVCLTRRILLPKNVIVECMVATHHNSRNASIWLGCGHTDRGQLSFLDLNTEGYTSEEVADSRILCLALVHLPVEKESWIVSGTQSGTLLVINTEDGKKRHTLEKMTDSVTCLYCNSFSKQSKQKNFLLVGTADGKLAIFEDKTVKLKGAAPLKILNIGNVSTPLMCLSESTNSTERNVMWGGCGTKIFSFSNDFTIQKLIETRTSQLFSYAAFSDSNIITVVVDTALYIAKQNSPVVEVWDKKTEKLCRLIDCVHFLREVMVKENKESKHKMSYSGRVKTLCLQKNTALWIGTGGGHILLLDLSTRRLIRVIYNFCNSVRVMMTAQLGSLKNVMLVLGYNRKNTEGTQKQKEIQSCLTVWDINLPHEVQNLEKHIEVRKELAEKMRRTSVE

Point of comparison: B4, G2385R/WT (ratio of abundance in G2385R versus wild-type bait) 0.52. Against it:
- B1 — lower, 0.35
- B2 — higher, 0.58
- B3 — lower, 0.34
- B5 — lower, 0.37
- B6 — lower, 0.37
- B7 — lower, 0.15
